Measurements: patent US7429563B2, “Peptide carrier for drug delivery” (The Board of Trustees of the University of Illinois, priority 2004, dated 2008)
Entries after “also recorded” stand apart in the source; their conditions may differ.

Columns and labels:
[1] = target: T1, HSA (Homo sapiens, UniProt P02768); experiment: 125I-HSA binding to MPO peptides immobilized on nitrocellulose (dot-blot); settings: immobilized peptide
T1 construct: purchased Sigma (St. Louis, Mo.)
Procedure: ^125I-labeling and binding of proteins: HSA and MPO were labeled with ^125I using IODO-GEN reagent from Pierce (Rockford, Ill.). ^125I HSA binding to the MPO peptides was determined by dot-blot analysis. Peptides were immobilized on nitrocellulose membranes and non-specific binding was blocked with bovine γ-globulin (2 mg/ml in PBS) for 1 h at 22° C. Membranes were washed 2× with PBS and incubated with ^125I-labeled HSA (0.3 pM) for 2 h at 22° C. Membranes were then washed 4× with PBS containing 0.05% Tween-20 (PBST) and autoradiography was performed. In some experiments, the membranes were directly counted to determine the membrane-associated radioactivity.
Peptides were immobilized on nitrocellulose membranes and then incubated with 1 ml of 0.3 μM ^125I-HSA in PBS for 2 h. Other details were described in Example 1. Non-specific binding was determined by incubating membranes with ^125I-HSA in the absence of any peptides. Results are shown mean±S.E. for three separate experiments made in triplicate.

[2] = tested on: albumin; experiment: Albumin binding of ELKSLNPRWDGE, albumin from a variety of sources; settings: e.g., human, porcine, murine
[3] = tested on: BLMVEC; experiment: MPO uptake and localization by confocal immunostaining; format: cell-based, bovine; settings: for MPO staining (localization): 30 min 37° C.
Procedure: FIG. 3A-FIG. 3E: Albumin induces the endocytosis of MPO in endothelial cells. BLMVEC grown on glass coverslips were incubated with buffer C for 12 h. Cells were then incubated with buffer C containing 25 nM MPO alone or in combination with Alexa-594 BSA (50 μg/ml) and unlabeled BSA (1 mg/ml) for 30 min at 37° C. Cells were washed 3×, fixed with 4% PFA in HBSS for 30 min at 22° C., and blocked with 5% goat serum in HBBS containing 0.1% Triton X-100 (blocking buffer) for 30 min at 22° C. After washing, the cells were incubated with anti-MPO Ab diluted (1:1000) in blocking buffer at 4° C. overnight. After washing 2×, cells were incubated with Alexa-488 labeled (green) secondary Ab in blocking buffer for 60 min at 4° C. Confocal images were obtained as described in Methods. […] There was a marked co-localization of […] (green) and Alexa-594 BSA (red) in merged image (yellow; right). FIG. 3B: Albumin induces the co-localization of MPO with cholera toxin subunit B (CTB) in endothelial cells. BLMVEC were grown as described in FIG. 3A. Cells were incubated with Alexa 488-CTB; (20 ug/ml), MPO (25 nM), and BSA (1 mg/ml) in buffer C for 30 min at 37° C. After this, cells were washed, fixed, permeabilized, and stained with anti-MPO Ab and AlexaA594 labeled secondary antibody. Cells were visualized by confocal microscopy after mounting. Confocal images of CTB (green-left panel) and anti-MPO Ab staining (red-middle panel) in vesicles are shown. […] There was marked merging in vesicles in the YZ projection image (far left panel) and single frame (X-Y) or single line (Y-Z and X-Z) images (left panel) observed in the presence of albumin compared to the green CTB-positive/MPO negative vesicles observed in the absence albumin (right and far right panels). […]
Immunostaining: Cellular localization of MPO, albumin, CTB (a caveolae marker), and caveolin-1 was determined by confocal microscopy (Minshall et al., J. Cell Biol., 150:1057-1069 (2000); John et al., Am. J. Physiol. Lung Cell Mol. Physiol., 284:L187-L196 (2003)). […] MPO uptake in BLMVEC was determined in the presence or absence of albumin or CTB. […]

[4] = tested on: BLMVEC monolayers; experiment: Transendothelial 125I-MPO permeability, Transwell filters; format: cell-based, bovine
Procedure: FIG. 2A-FIG. 2C: Albumin increases the binding of ^125I-MPO to endothelial cell surface. The binding of ^125I-MPO to BLMVEC was measured as described in Example 1. Results are shown as mean SEM of three separate experiments made in a triplicate binding assay. *, indicates difference from control (p<0.05); **, (p<0.001) different from control (i.e., binding was determined in the presence of 5 mg/ml γ-globulin). […] FIG. 2B: Effects of albumin on time course transendothelial transport of MPO. BLMVEC grown on microporous Transwell filters were used to determine transendothelial transport of MPO as described in Example 1. […] The transendothelial ^125I-MPO clearance rate was calculated as described (24, 27). *, indicates difference from control or CD-treated group (p<0.001). […] Lung preparations were perfused at 37° C. with Krebs-albumin solutions at the indicated concentrations; MPO PS (μl/min/g wet lung) was determined by perfusing ^125I-MPO for 10 min, and removing vascular tracer with Krebs for 6 min and bound tracer with cold (12° C.) acetate buffer (pH 4.5) for 3 min. ^125I-MPO PS increased 2-fold upon increasing [BSA] from 0.05 to 0.4 g/100 ml. […]
Transendotlielial ^125I-MPO permeability: Transendothelial permeability of ^125I-MPO in BLMVEC monolayers was determined using Transwell filter units (24, 27). […]

[5] = tested on: lung microvessels; experiment: Pulmonary vascular 125I-MPO permeability x surface area (PS), isolated-perfused lung; parameters: species or system rat
Procedure: (§1) FIG. 2A-FIG. 2C: Albumin increases the binding of ^125I-MPO to endothelial cell surface. The binding of ^125I-MPO to BLMVEC was measured as described in Example 1. Results are shown as mean SEM of three separate experiments made in a triplicate binding assay. *, indicates difference from control (p<0.05); **, (p<0.001) different from control (i.e., binding was determined in the presence of 5 mg/ml γ-globulin). […] FIG. 2B: Effects of albumin on time course transendothelial transport of MPO. BLMVEC grown on microporous Transwell filters were used to determine transendothelial transport of MPO as described in Example 1. To study the methyl-B-cyclodextrin (CD) effect, luminal chamber was incubated with 5.0 mM CD for 20 min prior to measuring ^125I-MPO permeability. […] The transendothelial ^125I-MPO clearance rate was calculated as described (24, 27). *, indicates difference from control or CD-treated group (p<0.001). […] Lung preparations were perfused at 37° C. with Krebs-albumin solutions at the indicated concentrations; MPO PS (μl/min/g wet lung) was determined by perfusing ^125I-MPO for 10 min, and removing vascular tracer with Krebs for 6 min and bound tracer with cold (12° C.) acetate buffer (pH 4.5) for 3 min. ^125I-MPO PS increased 2-fold upon increasing [BSA] from 0.05 to 0.4 g/100 ml. […]

[6] = tested on: BLMVEC; experiment: 125I-MPO binding to endothelial cell surface; format: cell-based, bovine; settings: increasing BSA 1-50 mg/ml in binding buffer; 4° C., 1 h
Procedure: as §1

Which “binding to HSA (in words)” value [1] does the source give for EARKIV here?
The value was “no binding; also recorded: failed to bind”.

Which “ability to bind albumin from a variety of sources” value [2] does the source give for ELKSLNPRWDGE here?
Its value is “able to bind to albumin from any of a variety of sources”.

With “GLATELGSLNPGWDGEGLYQEAGGIVGAMV [MPO-MT-peptide, mutant of MPO-WT-peptide, K and R replaced with G]” as the molecule, how does the “binding to HSA (in words)” value [1] read?
The value was “failed to bind”.

What does the source list for “methyl-β-cyclodextrin [CD, reference compound]”?
effect on albumin-induced MPO uptake ([3]; 5.0 mM CD for 20 min at 37° C.): prevented the albumin-induced MPO uptake; effect on transport of 125I-MPO in the presence of albumin ([4]; CD 5.0 mM for 20 min): prevented the transport

B1: MPO: MPO purified from human PMNs (Calbiochem), 125I-labeled for binding and permeability (protein, listed as Homo sapiens)
chain: MGVPFFSSLRCMVDLGPCWAGGLTAEMKLLLALAGLLAILATPQPSEGAAPAVLGEVDTSLVLSSMEEAKQLVDKAYKERRESIKQRLRSGSASPMELLSYFKQPVAATRTAVRAADYLHVALDLLERKLRSLWRRPFNVTDVLTPAQLNVLSKSSGCAYQDVGVTCPEQDKYRTITGMCNNRRSPTLGASNRAFVRWLPAEYEDGFSLPYGWTPGVKRNGFPVALARAVSNEIVRFPTDQLTPDQERSLMFMQWGQLLDHDLDFTPEPAARASFVTGVNCETSCVQQPPCFPLKIPPNDPRIKNQADCIPFFRSCPACPGSNITIRNQINALTSFVDASMVYGSEEPLARNLRNMSNQLGLLAVNQRFQDNGRALLPFDNLHDDPCLLTNRSARIPCFLAGDTRSSEMPELTSMHTLLLREHNRLATELKSLNPRWDGERLYQEARKIVGAMVQIITYRDYLPLVLGPTAMRKYLPTYRSYNDSVDPRIANVFTNAFRYGHTLIQPFMFRLDNRYQPMEPNPRVPLSRVFFASWRVVLEGGIDPILRGLMATPAKLNRQNQIAVDEIRERLFEQVMRIGLDLPALNMQRSRDHGLPGYNAWRRFCGLPQPETVGQLGTVLRNLKLARKLMEQYGTPNNIDIWMGGVSEPLKRKGRVGPLLACIIGTQFRKLRDGDRFWWENEGVFSMQQRQALAQISLPRIICDNTGITTVSKNNIFMSNSYPRDFVNCSTLPALNLASWREAS
modifications: 125I label
Which “MPO staining (localization)” value ([3]; 25 nM MPO plus 1 mg/ml BSA) does the source give for B1 here?
Its value is “markedly co-localized with albumin-containing vesicles”.

What about the “MPO staining (localization)” value ([3]; 25 nM MPO, absence of albumin) of the same molecule?
Its value is “observed only on the cell surface”.

What about the “MPO PS at higher BSA concentrations” value ([5]; BSA 0.25 and 0.4 g/100 ml) of the same molecule?
Its value is “did not increase further”.

And the “increase in 125I-MPO PS” value ([5]; upon increasing [BSA] from 0.05 to 0.4 g/100 ml)?
Its value is 2 fold.

And the “binding of 125I-MPO to the endothelial cell surface” value [6]?
The value was “increased the binding”.

And the “increase of transendothelial 125I-MPO permeability” value ([4]; in the presence of albumin, compared to γ-globulin (5 mg/ml))?
Its value is “more than 2 fold”.
